# Assay: Feed conversion efficiency in pigs after sub-cutaneous implantation of rPST compressed tablets, 0-7 days
# Format: in vivo
# Conditions: 0-7 days (Table 6)
# Excerpt: A number of the compressed tablets were implanted via sub-cutaneous injection in pigs.
Molecule,FCR,Feed intake [kgs],Weight increase [kgs]
"PST Injection A: daily injection of porcine somatotropin, 5 mg/day, comparator (source A) (protein, UniProt P01248 27-216, looked up) Somatotropin: FPAMPLSSLFANAVLRAQHLHQLAADTYKEFERAYIPEGQRYSIQNAQAAFCFSETIPAPTGKDEAQQRSDVELLRFSLLLIQSWLGPVQFLSRVFTNSLVFGTSDRVYEKLKDLEEGIQALMRELEDGSPRAGQILKQTYDKFDTNLRSDDALLKNYGLLSCFKKDLHKAETYLRVMKCRRFVESSCAF",1.97,16.33,8.30
"PST Injection M: daily injection of porcine somatotropin, 5 mg/day, comparator (source M) (protein, UniProt P01248 27-216, looked up) Somatotropin: FPAMPLSSLFANAVLRAQHLHQLAADTYKEFERAYIPEGQRYSIQNAQAAFCFSETIPAPTGKDEAQQRSDVELLRFSLLLIQSWLGPVQFLSRVFTNSLVFGTSDRVYEKLKDLEEGIQALMRELEDGSPRAGQILKQTYDKFDTNLRSDDALLKNYGLLSCFKKDLHKAETYLRVMKCRRFVESSCAF",1.78,16.78,9.43

# Source: patent publication US8197839B2, “Sustained release delivery system” (Virbac Corporation, priority 2001, dated 2012)
